Test results taken from patent US10175244B2, “Dominant negative HSP110 mutant and its use in prognosing and treating cancers” (INSERM (INSTITUT NATIONAL DE LA SANTÉ ET DE LA RECHERCHE …, priority 2011, dated 2019).

B1: TRAIL: cell death factor, Tumor necrosis factor-related-apoptosis-inducing ligand, recombinant (protein, UniProt P50591 1-281, looked up)
Tumor necrosis factor ligand …: MAMMEVQGGPSLGQTCVLIVIFTVLLQSLCVAVTYVYFTNELKQMQDKYSKSGIACFLKEDDSYWDPNDEESMNSPCWQVKWQLRQLVRKMILRTSEETISTVQEKQQNISPLVRERGPQRVAAHITGTRGRSNTLSSPNSKNEKALGRKINSWESSRSGHSFLSNLHLRNGELVIHEKGFYYIYSQTYFRFQEEIKENTKNDKQMVQYIYKYTSYPDPILLMKSARNSCWSKDAEYGLYSIYQGGIFELKENDRIFVSVTNEHLIDMDHEASFFGAFLVG
modifications: His tag
notes: cell death factor, Tumor necrosis factor-related-apoptosis-inducing ligand, recombinant
B2: HSP110wt: wild-type heat-shock 110 kDa protein, SEQ ID NO: 2 (protein, listed as Homo sapiens)
chain: MSVVGLDVGSQSCYIAVARAGGIETIANEFSDRCTPSVISFGSKNRTIGVAAKNQQITHANNTVSNFKRFHGRAFNDPFIQKEKENLSYDLVPLKNGGVGIKVMYMGEEHLFSVEQITAMLLTKLKETAENSLKKPVTDCVISVPSFFTDAERRSVLDAAQIVGLNCLRLMNDMTAVALNYGIYKQDLPSLDEKPRIVVFVDMGHSAFQVSACAFNKGKLKVLGTAFDPFLGGKNFDEKLVEHFCAEFKTKYKLDAKSKIRALLRLYQECEKLKKLMSSNSTDLPLNIECFMNDKDVSGKMNRSQFEELCAELLQKIEVPLYSLLEQTHLKVEDVSAVEIVGGATRIPAVKERIAKFFGKDISTTLNADEAVARGCALQCAILSPAFKVREFSVTDAVPFPISLIWNHDSEDTEGVHEVFSRNHAAPFSKVLTFLRRGPFELEAFYSDPQGVPYPEAKIGRFVVQNVSAQKDGEKSRVKVKVRVNTHGIFTISTASMVEKVPTEENEMSSEADMECLNQRPPENPDTDKNVQQDNSEAGTQPQVQTDAQQTSQSPPSPELTSEENKIPDADKANEKKVDQPPEAKKPKIKVVNVELPIEANLVWQLGKDLLNMYIETEGKMIMQDKLEKERNDAKNAVEEYVYEFRDKLCGPYEKFICEQDHQNFLRLLTETEDWLYEEGEDQAKQAYVDKLEELMKIGTPVKVRFQEAEERPKMFEELGQRLQHYAKIAADFRNKDEKYNHIDESEMKKVEKSVNEVMEWMNNVMNAQAKKSLDQDPVVRAQEIKTKIKELNNTCEPVVTQPKPKIESPKLERTPNGPNIDKKEEDLEDKNNFGAEPPHQNGECYPNEKNSVNMDLD
B3: HSP110delE9: truncated HSP110 protein (SEQ ID NO: 1) from mRNA lacking exon 9, devoid of the substrate binding domain (protein, listed as Homo sapiens)
chain: MSVVGLDVGSQSCYIAVARAGGIETIANEFSDRCTPSVISFGSKNRTIGVAAKNQQITHANNTVSNFKRFHGRAFNDPFIQKEKENLSYDLVPLKNGGVGIKVMYMGEEHLFSVEQITAMLLTKLKETAENSLKKPVTDCVISVPSFFTDAERRSVLDAAQIVGLNCLRLMNDMTAVALNYGIYKQDLPSLDEKPRIVVFVDMGHSAFQVSACAFNKGKLKVLGTAFDPFLGGKNFDEKLVEHFCAEFKTKYKLDAKSKIRALLRLYQECEKLKKLMSSNSTDLPLNIECFMNDKDVSGKMNRSQFEELCAELLQKIEVPLYSLLEQTHLKVEDVSAVEIVGGATRIPAVKERIAKFFGKDISTTLNADEAVARGCALQC

How the values were obtained:
[1] = test system: HCT116 cells; assay: Cell death analysis, TRAIL-induced apoptosis in transfected cells; format: cell-based, human; settings: for protective (anti-apoptotic) effect against TRAIL-induced apoptosis: transfected HCT116 cells
Protocol: FIG. 11 depicts the effect of HSP110delE9 on apoptosis. HCT116 cells transfected with GFP-tagged HSP110, HSP110delE9 or an empty vector (GFP) were treated with recombinant TRAIL ligand (5 h) at the indicated doses. Apoptosis was measured by FACS analysis of caspase 3 activity.
FIG. 12 depicts the effect of increasing dose of HSP110delE9 on apoptosis. HCT116 cells transfected with GFP-tagged HSP110 and increased doses of HSP110delE9 or an empty vector (GFP) were treated with recombinant TRAIL ligand (60 ng/ml, 5 h) and the percentage of apoptosis was determined by DAPI staining (chromatin condensation).
(§1) Adherent cells were plated onto 12-well culture plates (1.5×10^5 cells/well) in complete medium. When indicated, cells were treated with TRAIL (150 ng/ml or 500 ng/ml) for 4 hours and cell death was measured by Hoechst 33342 staining (Sigma-Aldrich). Following treatment for 48 h with oxaliplatin (OxaPt, 20 and 40 μM), apoptotic cells were detected by Apo2.7 staining. Briefly, cells were harvested, washed in PBS and permeabilized with digitonin (100 mg/ml, 10 min at 4° C.). Cells were incubated with anti-Apo2.7 antibody and apoptotic cells were analyzed by flow cytometry using a LSR2 flow cytometer (Becton Dickinson, Franklin Lakes, N.J.).
(§2) A number of studies have previously described the anti-apoptotic role of HSP110. We therefore investigated the effect on apoptosis of the HSP110 truncation due to exon 9 skipping. HCT116 cells were transfected with HSP110wt or HSP110delE9 and apoptosis was triggered using the cell death factor, TRAIL (Tumor necrosis factor-related-apoptosis-inducing ligand).

[2] = test system: protein aggregation induced by a heat shock; assay: HSP110 chaperone activity, protein thermolability assay; format: biochemical, mouse; settings: for anti-aggregation chaperone activity: protein extracts of transfected MEF heated at 55° C. for 1 h
Protocol: FIG. 9 depicts the effect of HSP110delE9 expression on protein aggregation. Protein extracts from MEF HSF1^+/+ cells transfected with HSP70, HSP110 and/or HSP110delE9 were heated at 55° C. for 1 h. The ratio between the initial amount of soluble protein before and after heat shock allowed to the quantification of protein aggregation. Each bar is the mean value of 4 different experiments. *P<0.05.
HSP110 chaperone activity was evaluated using a protein thermolability assay. Total protein (2 mg/mL) from HSF1^−/− MEFs that had been transfected with HSP70 (positive control), HSP27 (negative control), HSP110 or Mutant HSP110 (Dc Assay Kits, Bio-Rad, France) was heated at 55° C. for 1 hour. After centrifugation to eliminate aggregated proteins, the remaining native proteins in the supernatant were quantified. The ratio between the initial amount of soluble protein and that obtained after heating allowed for the quantification of protein aggregation.
(§3) The skipping of HSP110 exon 9 is frameshift and therefore generates a premature terminaison codon in exon 10 of the HSP110delE9 mRNA. HSP110delE9 is a truncated protein that contains the N-terminal ATP binding domain but is devoid of the substrate binding domain (FIG. 3). We performed several functional assays to better understand the role of increased expression of HSP110delE9 in MSI CRC cell lines. Chaperone activity was first studied using a protein thermolability assay that measures the in vitro ability of HSP110 to block protein aggregation induced by a heat shock using Murine Embryonic Fibroblasts (MEF).

[3] = target: T1, HSP70 (Homo sapiens, UniProt P0DMV8); assay: Immunoprecipitation and Western-blotting, association with HSP70; format: binding; settings: HCT116 cells, immunoprecipitation
T1 construct: HA; expressed in transfected cells; host or cells: HCT116
T1 sequence (P0DMV8 whole entry): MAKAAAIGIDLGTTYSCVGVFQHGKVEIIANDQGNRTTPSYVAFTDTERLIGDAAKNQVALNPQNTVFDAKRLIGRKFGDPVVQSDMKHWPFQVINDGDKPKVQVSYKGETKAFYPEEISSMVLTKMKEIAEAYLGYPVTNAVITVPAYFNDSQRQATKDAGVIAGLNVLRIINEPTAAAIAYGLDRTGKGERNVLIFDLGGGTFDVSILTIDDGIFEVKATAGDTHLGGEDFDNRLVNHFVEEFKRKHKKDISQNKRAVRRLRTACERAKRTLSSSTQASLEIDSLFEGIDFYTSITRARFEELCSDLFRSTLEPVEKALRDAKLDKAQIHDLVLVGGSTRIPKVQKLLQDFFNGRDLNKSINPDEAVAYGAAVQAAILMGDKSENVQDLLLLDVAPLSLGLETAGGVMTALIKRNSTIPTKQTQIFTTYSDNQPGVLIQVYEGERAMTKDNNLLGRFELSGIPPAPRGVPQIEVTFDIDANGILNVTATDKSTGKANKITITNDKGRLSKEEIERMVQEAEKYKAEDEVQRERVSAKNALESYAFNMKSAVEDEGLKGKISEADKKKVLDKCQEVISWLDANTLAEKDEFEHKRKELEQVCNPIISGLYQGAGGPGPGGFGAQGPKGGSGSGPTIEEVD
Protocol: (§4) Transfected cells were first lysed in lysis buffer (50 mM Hepes (pH 7.6), 150 mM NaCl, 5 mM EDTA and 0.1% NP40) followed by immunoprecipitation using GFP-tag antibody. Immunoprecipitates were separated in a 10% SDS-polyacrylamide gel and then transferred to PVDF membranes using a wet transfer apparatus (BioRad, Hercules, Califomia, USA). Membranes were first probed ovemight using primary antibodies: HA-tag antibody was from Covance (Eurogentec, Angers, France), 14-3-3 from Santa-Cruz (TebuBio, Le Perray en Yvelines, France) and GFP-tag antibody from Millipore (Molsheim, France).
as §3

[4] = target: T2, HSP27 (Homo sapiens, UniProt P04792); assay: Immunoprecipitation and Western-blotting, association with HSP27; format: binding; settings: HCT116 cells, immunoprecipitation
T2 construct: HA; expressed in transfected cells; host or cells: HCT116
T2 sequence (P04792 whole entry): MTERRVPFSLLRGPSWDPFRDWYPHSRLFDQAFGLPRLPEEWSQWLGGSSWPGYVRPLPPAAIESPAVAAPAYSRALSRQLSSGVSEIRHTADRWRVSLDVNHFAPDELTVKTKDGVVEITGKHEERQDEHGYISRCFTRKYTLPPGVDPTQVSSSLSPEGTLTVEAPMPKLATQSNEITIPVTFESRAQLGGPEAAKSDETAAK
Protocol: as §4, §3

[5] = test system: HSP90; assay: Immunoprecipitation and Western-blotting, association with HSP90; format: binding; settings: HCT116 cells, immunoprecipitation
Protocol: as §4, §3

[6] = test system: denatured protein substrates; settings: compared to HSC70 and HSP70; cited from earlier work
[7] = target: T3, HSP110wt (Homo sapiens, UniProt Q92598); assay: Immunoprecipitation and Western-blotting, association with HSP110wt; format: binding; settings: HCT116 cells, immunoprecipitation
T3 construct: host or cells: HCT116
Protocol: FIG. 10 depicts the analysis of HSP110delE9 to wild-type HSP110. Cell lysates from HCT116 transfected with GFP-tagged HSP110 and/or HSP110delE9 were subjected to immunoprecipitation using HSP110 that recognizes the C-terminus of HSP110. After migration, membranes were immunoblotted with GFP antibody. Inputs: protein level in total cell lysates.
as §4
as §3, with “Chaperone activity was first studied using a protein thermolability assay that measures the in vitro ability of HSP110 to block protein aggregation induced by a heat shock using Murine Embryonic Fibroblasts (MEF).” left out

[8] = test system: MSI (HCT116, LoVo) and MSS (SW480) CRC cell lines; assay: Cell death analysis, sensitivity of transfected CRC cell lines to anticancer agents; format: cell-based, human
Protocol: FIG. 13 depicts the pro-apoptotic effect of HSP110delE9 on tumor cells treated with a chemotherapeutic agent. HCT116 (MSI) or SW480 (MSS) cells were transfected with HSP110wt (1.5 μg) and co-transfected with two different doses (0.5 and 1 μg) of either GFP-empty vector or HSP110delE9. After treatment with oxaliplatin (Oxa, 40 μM, 48 h), apoptosis was assessed by FACS analysis. *P<0.05.
as §1, §2

[9] = test system: MSI colon tumor cell lines; assay: Apoptosis on re-expression of HSP110delE9 (NMD experiments); format: cell-based; settings: data not shown
Source text: The HSP110delE9 transcript contains a premature stop codon (PTC). Consequently, it is partially degraded by the NMD system in the tumor cells. […] Synthesis of chemical or biological compounds mimicking the HSP110delE9 activity in tumor cells, in particular mimicking its anti-apoptotic effect may have a major therapeutical interest in the treatment of CRCs. In the same way, the use of compounds susceptible to promote the HSP110delE9 expression in the tumor cells would be of great interest. […] Different pharmacological inhibitors of NMD are now available. They can be used to reproduce these experiments, both in vitro in different cell models and in animal models (nude mice xenografted with MSI CRC in first-line).

Row | Molecule | induction of apoptosis ([1]; HCT116 cells treated with TRAIL) | anti-aggregation chaperone activity [2] | association with HSP70 [3] | association with HSP27 [4] | association with HSP90 [5] | protective (anti-apoptotic) effect against TRAIL-induced apoptosis [1] | efficiency at binding and stabilizing denatured protein substrates [6] | effect on anti-aggregation activity of HSP110wt ([2]; HSP110delE9 added at the same time as HSP110wt) | association with HSP110wt [7] | effect on anti-apoptotic function of HSP110wt ([1]; HCT116 co-transfected with HSP110wt and increasing doses of HSP110delE9, TRAIL) | sensitization of colon cancer cells to chemotherapeutic agents ([8]; 5-fluorouracil and oxaliplatin, in vitro) | sensitivity of CRC cell lines to oxaliplatin ([8]; over-expression in HCT116, LoVo, SW480) | apoptosis on re-expression [9]
1 | B1 | induced dose dependent apoptosis | – | – | – | – | – | – | – | – | – | – | – | –
2 | B2 | – | anti-aggregation activity comparable to other HSPs such as HSP70 | efficiently interacted with HSP70 | efficiently interacted | not with HSP90 | exerted a protective effect | approximately four-fold more efficient | – | – | – | – | – | –
3 | B3 | – | lost this chaperone activity | lost the ability to associate with HSP70 and HSP27 | lost the ability to associate with HSP70 and HSP27 | – | lacked the protective properties of HSP110wt | – | anti-aggregation activity of HSP110wt was abrogated | associated strongly with HSP110wt | able to block its anti-apoptotic function in a dose-dependent manner | caused the sensitization of colon cancer cells | increased their sensitivity to anticancer agents such as oxaliplatin | causes apoptosis of MSI colon tumor cell lines
